System: Escherichia coli TOP10
Assay: shrunken log2 fold change of peptide-encoding DNA abundance (4.5 h post-induction vs induction); higher = less antimicrobial activity (less host growth inhibition)
Details: time post-induction: 4.5 h; library: site-saturation at positions 5, 18, 19, 20
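Also: peptides expressed intracellularly from a pBAD plasmid library in pooled LB shake-flask culture, induced with 0.3% L-arabinose, DNA abundance read by NGS, three biological replicates, DESeq2 with apeglm shrinkage.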

Sequence | shrunken log2 fold change
RRIRSRPPRLPRPRPRPCRQPRP | -0.184
RRIRHRPPRLPRPRPRPHNQPRP | -0.521
RRIRIRPPRLPRPRPRPWCVPRP | -0.698
RRIRVRPPRLPRPRPRPQNQPRP | -0.388
RRIRQRPPRLPRPRPRPHNKPRP | -0.599
RRIRGRPPRLPRPRPRPDLCPRP | 0.445
RRIRNRPPRLPRPRPRPSKVPRP | 0.0123
RRIRCRPPRLPRPRPRPNWSPRP | -0.206
RRIRNRPPRLPRPRPRPKPFPRP | -0.104
RRIRFRPPRLPRPRPRPVEDPRP | -0.264
RRIRKRPPRLPRPRPRPRVPPRP | 0.0172
RRIRERPPRLPRPRPRPSRCPRP | 0.0232
RRIRPRPPRLPRPRPRPARNPRP | 0.328
RRIRIRPPRLPRPRPRPMPPPRP | -0.0836
RRIRSRPPRLPRPRPRPQQLPRP | -0.0917
RRIRCRPPRLPRPRPRPHHKPRP | -0.857
RRIRCRPPRLPRPRPRPFTIPRP | -0.0284
RRIRSRPPRLPRPRPRPKCFPRP | 0.318
RRIRERPPRLPRPRPRPKHQPRP | -0.0699
RRIRGRPPRLPRPRPRPNYMPRP | -0.0439
RRIRTRPPRLPRPRPRPWCAPRP | -0.203
RRIRCRPPRLPRPRPRPTQRPRP | 0.514
RRIRYRPPRLPRPRPRPVTFPRP | -0.0285
RRIRCRPPRLPRPRPRPWHHPRP | -1.14
RRIRGRPPRLPRPRPRPTESPRP | 0.803

Sequence | shrunken log2 fold change
RRIRCRPPRLPRPRPRPVSYPRP | 0.0707
RRIRPRPPRLPRPRPRPHANPRP | -0.0736
RRIRPRPPRLPRPRPRPPPPPRP | 0.85
RRIRARPPRLPRPRPRPYAAPRP | 0.375
RRIRVRPPRLPRPRPRPGNGPRP | 0.023
RRIRERPPRLPRPRPRPPPWPRP | 0.318
RRIRQRPPRLPRPRPRPIWHPRP | -0.204
RRIRPRPPRLPRPRPRPMDFPRP | -0.115
RRIRNRPPRLPRPRPRPGFIPRP | 0.0474
RRIRSRPPRLPRPRPRPTCLPRP | -0.117
RRIRIRPPRLPRPRPRPDSLPRP | -0.163
RRIRVRPPRLPRPRPRPAIFPRP | 0.0175
RRIRIRPPRLPRPRPRPMRWPRP | -0.0141
RRIRRRPPRLPRPRPRPAKPPRP | 0.125
RRIRQRPPRLPRPRPRPAEHPRP | 0.166
RRIRQRPPRLPRPRPRPMSDPRP | -0.0194
RRIRWRPPRLPRPRPRPGIPPRP | 0.11
RRIRSRPPRLPRPRPRPLEVPRP | -0.103
RRIRCRPPRLPRPRPRPWEEPRP | 0.0492
RRIRIRPPRLPRPRPRPEYDPRP | 0.0262
RRIRARPPRLPRPRPRPCEMPRP | 0.345
RRIRSRPPRLPRPRPRPHMPPRP | -0.401
RRIRRRPPRLPRPRPRPMRQPRP | 0.202
RRIRFRPPRLPRPRPRPWGSPRP | -0.0689
RRIRDRPPRLPRPRPRPLECPRP | 0.0215

Sequence | shrunken log2 fold change
RRIRMRPPRLPRPRPRPEHWPRP | -0.00593
RRIRERPPRLPRPRPRPNEMPRP | 0.0665
RRIRRRPPRLPRPRPRPTNRPRP | 0.282
RRIRFRPPRLPRPRPRPYQPPRP | -0.269
RRIRRRPPRLPRPRPRPACMPRP | 0.479
RRIRERPPRLPRPRPRPFNFPRP | -0.298
RRIRQRPPRLPRPRPRPYNVPRP | -0.0265
RRIRDRPPRLPRPRPRPVPYPRP | -0.244
RRIRPRPPRLPRPRPRPENVPRP | -0.2
RRIRIRPPRLPRPRPRPPDTPRP | -0.116
RRIRGRPPRLPRPRPRPCPSPRP | 0.0189
RRIRWRPPRLPRPRPRPYNFPRP | -0.58
RRIRFRPPRLPRPRPRPRYSPRP | -0.736
RRIRDRPPRLPRPRPRPYSGPRP | -0.035
RRIRARPPRLPRPRPRPKAWPRP | 0.146
RRIRERPPRLPRPRPRPGRPPRP | 0.164
RRIRYRPPRLPRPRPRPVEMPRP | -1.52
RRIRFRPPRLPRPRPRPMWEPRP | -0.232
RRIRSRPPRLPRPRPRPFPEPRP | -0.22
RRIRQRPPRLPRPRPRPYAFPRP | -0.175
RRIRVRPPRLPRPRPRPKFMPRP | -0.0954
RRIRKRPPRLPRPRPRPKAIPRP | 0.0275
RRIRWRPPRLPRPRPRPQMPPRP | 0.135
RRIRQRPPRLPRPRPRPFLEPRP | -0.155
RRIRSRPPRLPRPRPRPSSEPRP | 0.0612
